Experimental data as given in IntAct's records for PubMed 29954986.

B1: Protein patched homolog 1 (Homo sapiens), Q13635-1 (parent)
chain: MASAGNAAEPQDRGGGGSGCIGAPGRPAGGGRRRRTGGLRRAAAPDRDYLHRPSYCDAAFALEQISKGKATGRKAPLWLRAKFQRLLFKLGCYIQKNCGKFLVVGLLIFGAFAVGLKAANLETNVEELWVEVGGRVSRELNYTRQKIGEEAMFNPQLMIQTPKEEGANVLTTEALLQHLDSALQASRVHVYMYNRQWKLEHLCYKSGELITETGYMDQIIEYLYPCLIITPLDCFWEGAKLQSGTAYLLGKPPLRWTNFDPLEFLEELKKINYQVDSWEEMLNKAEVGHGYMDRPCLNPADPDCPATAPNKNSTKPLDMALVLNGGCHGLSRKYMHWQEELIVGGTVKNSTGKLVSAHALQTMFQLMTPKQMYEHFKGYEYVSHINWNEDKAAAILEAWQRTYVEVVHQSVAQNSTQKVLSFTTTTLDDILKSFSDVSVIRVASGYLLMLAYACLTMLRWDCSKSQGAVGLAGVLLVALSVAAGLGLCSLIGISFNAATTQVLPFLALGVGVDDVFLLAHAFSETGQNKRIPFEDRTGECLKRTGASVALTSISNVTAFFMAALIPIPALRAFSLQAAVVVVFNFAMVLLIFPAILSMDLYRREDRRLDIFCCFTSPCVSRVIQVEPQAYTDTHDNTRYSPPPPYSSHSFAHETQITMQSTVQLRTEYDPHTHVYYTTAEPRSEISVQPVTVTQDTLSCQSPESTSSTRDLLSQFSDSSLHCLEPPCTKWTLSSFAEKHYAPFLLKPKAKVVVIFLFLGLLGVSLYGTTRVRDGLDLTDIVPRETREYDFIAAQFKYFSFYNMYIVTQKADYPNIQHLLYDLHRSFSNVKYVMLEENKQLPKMWLHYFRDWLQGLQDAFDSDWETGKIMPNNYKNGSDDGVLAYKLLVQTGSRDKPIDISQLTKQRLVDADGIINPSAFYIYLTAWVSNDPVAYAASQANIRPHRPEWVHDKADYMPETRLRIPAAEPIEYAQFPFYLNGLRDTSDFVEAIEKVRTICSNYTSLGLSSYPNGYPFLFWEQYIGLRHWLLLFISVVLACTFLVCAVFLLNPWTAGIIVMVLALMTVELFGMMGLIGIKLSAVPVVILIASVGIGVEFTVHVALAFLTAIGDKNRRAVLALEHMFAPVLDGAVSTLLGVLMLAGSEFDFIVRYFFAVLAILTILGVLNGLVLLPVLLSFFGPYPEVSPANGLNRLPTPSPEPPPSVVRFAMPPGHTHSGSDSSDSEYSSQTTVSGLSEELRHYEAQQGAGGPAHQVIVEATENPVFAHSTVVHPESRHHPPSNPRQQPHLDSGSLPPGRQGQQPRRDPPREGLWPPPYRPRRDAFEISTEGHSGPSNRARWGPRGARSHNPRNPASTAMGSSVPGYCQPITTVTASASVTVAVHPPPVPGPGRNPRGGLCPGYPETDHGLFEDPHVPFHVRCERRDSKVEVIELQDVECEERPRGSSSN

Variants of: B1
Settings: with shh_human SHH

| Variant | effect of a mutation on the interaction |
| --- | --- |
| L282Q;T500F;P504L | disrupting interaction |
| L282Q | disrupting interaction |
| G509V | disrupting interaction |
| T500F;P504L | disrupting interaction |
| D513Y | disrupting interaction |
